In patent US20170355757A1 (Regeneron, published 2017):

Key:
[1] = target: T1, monkey C5-mmh (monkey, UniProt P01031 19-1676 (human entry), limits assumed); test: SPR, mAb captured via anti-hFc, 37C
T1 construct: Recombinant monkey C5 with a C-terminal myc-myc-hexahistidine tag
T1 chain: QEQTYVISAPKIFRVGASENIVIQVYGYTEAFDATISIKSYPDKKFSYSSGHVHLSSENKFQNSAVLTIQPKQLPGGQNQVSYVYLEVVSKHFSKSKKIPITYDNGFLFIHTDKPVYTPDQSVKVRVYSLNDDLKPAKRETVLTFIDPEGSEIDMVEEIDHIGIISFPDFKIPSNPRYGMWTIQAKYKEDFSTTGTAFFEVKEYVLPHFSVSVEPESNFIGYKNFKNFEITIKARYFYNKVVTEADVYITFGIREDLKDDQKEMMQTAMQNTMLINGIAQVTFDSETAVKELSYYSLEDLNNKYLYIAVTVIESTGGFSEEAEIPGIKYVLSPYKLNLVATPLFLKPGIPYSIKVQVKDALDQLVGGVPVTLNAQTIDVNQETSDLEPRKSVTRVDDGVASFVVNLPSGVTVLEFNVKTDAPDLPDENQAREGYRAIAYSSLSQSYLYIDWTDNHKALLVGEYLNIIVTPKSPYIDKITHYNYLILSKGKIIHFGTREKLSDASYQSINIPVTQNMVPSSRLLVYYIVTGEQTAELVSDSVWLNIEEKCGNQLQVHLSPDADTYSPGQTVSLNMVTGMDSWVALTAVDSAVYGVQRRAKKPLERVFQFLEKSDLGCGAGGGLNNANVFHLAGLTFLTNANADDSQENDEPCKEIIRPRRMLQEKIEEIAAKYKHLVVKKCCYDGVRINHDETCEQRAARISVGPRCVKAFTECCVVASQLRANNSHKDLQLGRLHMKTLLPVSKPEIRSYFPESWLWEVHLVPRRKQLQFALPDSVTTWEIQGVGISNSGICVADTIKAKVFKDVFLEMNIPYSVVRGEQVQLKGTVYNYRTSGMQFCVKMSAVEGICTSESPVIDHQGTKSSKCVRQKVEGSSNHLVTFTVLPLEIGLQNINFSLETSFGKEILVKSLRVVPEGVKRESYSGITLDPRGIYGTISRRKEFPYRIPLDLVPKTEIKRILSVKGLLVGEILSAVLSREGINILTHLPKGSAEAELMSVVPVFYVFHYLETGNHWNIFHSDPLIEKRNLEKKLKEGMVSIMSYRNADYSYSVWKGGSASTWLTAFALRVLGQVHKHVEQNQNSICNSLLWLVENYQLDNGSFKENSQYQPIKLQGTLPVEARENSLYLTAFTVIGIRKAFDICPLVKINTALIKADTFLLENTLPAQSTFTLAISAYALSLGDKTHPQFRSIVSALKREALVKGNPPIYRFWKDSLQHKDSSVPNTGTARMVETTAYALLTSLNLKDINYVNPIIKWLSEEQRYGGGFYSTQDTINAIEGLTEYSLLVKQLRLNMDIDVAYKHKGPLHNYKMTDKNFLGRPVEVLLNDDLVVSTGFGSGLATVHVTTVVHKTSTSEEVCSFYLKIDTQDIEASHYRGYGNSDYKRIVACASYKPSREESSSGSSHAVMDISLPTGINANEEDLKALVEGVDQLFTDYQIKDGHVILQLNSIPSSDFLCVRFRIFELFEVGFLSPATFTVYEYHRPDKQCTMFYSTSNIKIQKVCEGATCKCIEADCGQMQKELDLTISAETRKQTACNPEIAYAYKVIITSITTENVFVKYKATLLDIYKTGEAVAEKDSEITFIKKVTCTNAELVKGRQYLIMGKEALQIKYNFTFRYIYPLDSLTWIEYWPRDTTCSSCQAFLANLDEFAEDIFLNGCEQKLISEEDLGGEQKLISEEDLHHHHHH
Protocol: (§1) Equilibrium dissociation constants (KD values) for C5 binding to purified anti-C5 antibodies were determined using a real-time surface plasmon resonance biosensor assay on a Biacore T200 instrument. The Biacore sensor surface was derivatized by amine coupling with a monoclonal mouse anti-human Fc antibody (GE Healthcare, # BR-1008-39) to capture anti-C5 antibodies expressed with human Fc constant regions. Biacore binding studies were conducted in HBST running buffer (0.01M HEPES pH 7.4, 0.15M NaCl, 3 mM EDTA, 0.05% v/v Surfactant P20).
(§2) Human C5 was obtained from a commercial source (EMD). Other C5 reagents were expressed with a C-terminal myc-myc-hexahistidine tag (subsequently referred to as C5-mmh). […] Association of all the C5 reagents to each of the captured monoclonal antibodies was monitored for 3 minutes and their dissociation in HBST running buffer was monitored for 8 minutes. All the binding kinetics experiments were performed at either 25° C. or 37° C. Kinetic association (kₐ) and dissociation (kd) rate constants were determined by fitting the real-time sensorgrams to a 1:1 binding model using Scrubber 2.0c curve fitting software. Binding dissociation equilibrium constants (KD) and dissociative half-lives (t %) were calculated from the kinetic rate constants as: KD (M)=kd/kₐ and t_{1/2} (min)=In2/(60×kd)

[2] = target: T2, human C5 R885H-mmh (human, UniProt P01031 19-1676); test: SPR, mAb captured via anti-hFc, 37C
T2 construct: also called human C5 variant R885H
Protocol: as §1, §2

[3] = target: T3, human C5 R885C-mmh (human, UniProt P01031 19-1676); test: SPR, mAb captured via anti-hFc, 37C
T3 construct: also called human C5 variant R885C
Protocol: as §1, §2

[4] = target: T2, human C5 R885H-mmh; test: SPR, mAb captured via anti-hFc, 25C
Protocol: as §1, §2

[5] = target: T3, human C5 R885C-mmh; test: SPR, mAb captured via anti-hFc, 25C
Protocol: as §1, §2

[6] = target: T4, human C5 (human, UniProt P01031 19-1676); test: SPR, mAb captured via anti-hFc, dissociation at pH7.4 vs pH6.0, 25C
T4 construct: Bought human C5 (EMD #204888, said elsewhere to be purified from plasma); also called hC5; complement component 5
Protocol: Effect of pH on the rate of dissociation of recombinant human C5 bound to purified anti-C5 monoclonal antibodies was determined using a real-time surface plasmon resonance biosensor using a Biacore T200 instrument. The Biacore sensor surface was first derivatized by amine coupling with a monoclonal mouse anti-human Fc antibody (GE, # BR-1008-39) to capture anti-C5 monoclonal antibodies expressed with human IgG4 Fc. All Biacore binding studies were performed using two running buffers PBS-T, pH7.4 (0.01M Na₂HPO₄/NaH₂PO₄, 0.15M NaCl, 0.05% v/v Tween-20, adjusted to pH7.4) and PBS-T, pH6.0 (0.01M Na₂HPO₄/NaH₂PO₄, 0.15M NaCl, 0.05% v/v Tween-20, adjusted to pH6.0). […] Binding dissociative half-lives (t %) were calculated from kd as: […]

Row | Binder | 100 nM monkey C5-mmh Bound (RU) [1] [RU] | Kd [1] [nM] | koff [1] [s⁻¹] | kon [1] [M⁻¹ s⁻¹] | t1/2 [1] [min] | 100 nM Human C5 R885H-mmh Bound (RU) [2] [RU] | Kd [2] [nM] | koff [2] [s⁻¹] | kon [2] [M⁻¹ s⁻¹] | t1/2 [2] [min] | 100 nM Human C5 R885C-mmh Bound (RU) [3] [RU] | Kd [3] [nM] | koff [3] [s⁻¹] | kon [3] [M⁻¹ s⁻¹] | t1/2 [3] [min] | 100 nM Human C5 R885H-mmh Bound (RU) [4] [RU] | Kd [4] [nM] | koff [4] [s⁻¹] | kon [4] [M⁻¹ s⁻¹] | t1/2 [4] [min] | further results
1 | H4H11683N (antibody, V domains shown, also called H2M11683N) VH: QVQLVESGGGVVQPGRSLRLSCVASGFTFSSYGIHWVRQAPGKGLEWVAVIWDDGNNINYSDSVKGRFIISRDNSRKTVYLQMNSLRGEDTAVYYCARDAPIAPVPDYWGQGTLVTVSS VL: DIQMTQSPSTLSASVGDRVTITCRASQSISSWLAWYQQKPGKAPKLLIYKASSLDTGVPSRFSGSGSGTEFTLTISSLQPDDFATYYCQQYNTYSYTFGLGTKLEIK | 303 | 2.16 | 0.00115 | 535000 | 10 | 81 | 2.69 | 0.00147 | 548000 | 8 | 78 | 3.25 | 0.00143 | 438000 | 8 | 118 | 0.468 | 0.000246 | 526000 | 47 | 100 nM Human C5 R885C-mmh Bound (RU) [5]: 116 RU; Kd [5]: 0.479 nM; koff [5]: 0.000239 s⁻¹; kon [5]: 499000 M⁻¹ s⁻¹; t1/2 [5]: 48 min; t1/2 Ratio pH7.4/pH6.0 [6]: 2
2 | H4H12171P (antibody, human IgG4, V domains shown, Human IgG4 Fc with S108P hinge mutation (H4H)) VH: EVQLVESGGGVVRPGGSLRLSCAASGFTFDEYGMTWVRQVPGKGLEWVSGITWNGGFTDYTDSVKGRFTSSRDNAKNSLYLQMNSLRAEDTALYYCARDGYSSSWGAYDIWGQGTMVTVSS VL: DIQMTQSPSSLSASVGDRVTITCRASQSISTYLNWYQQKPGKAPKLLIYAASSLQSGVPLRFSGSGSGTDFTLTISSLQPEDFASYFCQQSYSTPYTFGQGTKLEIK | 78 | 1.85 | 0.00103 | 556000 | 11 | 80 | 1.63 | 0.000963 | 592000 | 12 | 78 | 2.01 | 0.000957 | 477000 | 12 | 51 | 0.216 | 0.000142 | 659000 | 81 | 100 nM Human C5 R885C-mmh Bound (RU) [5]: 51 RU; Kd [5]: 0.366 nM; koff [5]: 0.000139 s⁻¹; kon [5]: 379000 M⁻¹ s⁻¹; t1/2 [5]: 83 min; t1/2 Ratio pH7.4/pH6.0 [6]: 0.6
3 | H4H12163P (antibody, human IgG4, V domains shown, Human IgG4 Fc with S108P hinge mutation (H4H)) VH: EVQLVESGGDLVQPGGSLRLSCAASGFTFSSYAMNWVRQGPGKGLEWVSAISGRGDSTYYADSVKGRLTISRDNSKNTLYLQMNSLRAEDTAVYYCVKEGEQLVYWYFDLWGRGTLVTVSS VL: DIQMTQSPSSLSASVGDRVTITCRASQTISNFLHWYQQKPGKAPKLLIYAASSLQSGVPSRFSGSGSGTDFTLTISSLQPEDFSTYFCQQSYTTPLTFGGGTKVEIK | 129 | 3.2 | 0.00125 | 390000 | 9 | 85 | 4 | 0.0029 | 724000 | 4 | 83 | 4.97 | 0.00281 | 566000 | 4 | 214 | 0.646 | 0.000434 | 672000 | 27 | 100 nM Human C5 R885C-mmh Bound (RU) [5]: 211 RU; Kd [5]: 0.858 nM; koff [5]: 0.000432 s⁻¹; kon [5]: 504000 M⁻¹ s⁻¹; t1/2 [5]: 27 min; t1/2 Ratio pH7.4/pH6.0 [6]: 1.2
4 | H4H12167P (antibody, human IgG4, V domains shown, Human IgG4 Fc with S108P hinge mutation (H4H)) VH: QVQLVESGGGLVKPGGSLRLSCAASGFTFSDSYMSWIRQAPGKGLEWISYIGSSGNTFYYADSVKGRFTISRDNANNLLYLQMTSLRAEDTAVYYCAREEGDFWSAVDSWGQGTLVTVSS VL: DIQLTQSPSFLSASVGDRVTITCWASQGISSYLAWYQQKPGKAPKLLIHTASTLQSGVPSRFSGSGSGTEFTLTISNLQPEDFATYYCQQLNSYPFTFGPGTKVDIK | 146 | 0.539 | 0.000289 | 537000 | 40 | 65 | 2.91 | 0.00257 | 881000 | 5 | 64 | 3.64 | 0.00249 | 684000 | 5 | 187 | 0.433 | 0.000298 | 689000 | 39 | 100 nM Human C5 R885C-mmh Bound (RU) [5]: 163 RU; Kd [5]: 0.413 nM; koff [5]: 0.000294 s⁻¹; kon [5]: 711000 M⁻¹ s⁻¹; t1/2 [5]: 39 min; t1/2 Ratio pH7.4/pH6.0 [6]: 0.6
